Test results from the nanobody polyreactivity screen of Harvey et al. (2022).

Test: yeast display, Sf9 membrane polyspecificity reagent, FACS + sequencing; frameworks hold sequencing errors
Method in brief: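 Galactose-induced (36–48 hours) yeast carrying a synthetic nanobody display library were exposed to 10% biotinylated, detergent-solubilized Sf9 membrane reagent at 4 °C for 1 hour. FACS followed streptavidin microbead enrichment, using low and high (top ~1%) gates for expression (anti-HA) and reagent binding (streptavidin). Colony PCR, MiSeq 2 × 250 sequencing and CDR-length filtering followed. Labels for polyreactivity reflect the gate of origin.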

Row | Sequence | polyreactivity (PSR sort gate)
1 | QVQLVESGVGLVQAGGSLRLSCAASGFISVNNAMGWYRQAPGKERELVAAITDTDDSTYADSVKGRFTISRDNAKNTVYLQMNSLKPEDTAVYYCAAGIIYSNEPNITSYDYWGQGTQVTVSS | low polyreactivity
2 | QVQIVESGGGLVQAGGSLRLSCAASGRIFGPYAMVWYRQAPGKERELVAAIRASSSSTYYADSVKGRFTISRDNAKNTVYLQMNSLKPEDTAVYYCAADWYYGYAWKYGYWGQVTQVTVSS | low polyreactivity
3 | QVQLVESGGGLVQAGGSLRLSCAASGFIFPIYAMGWYRQAPGKERELVAAITSNGASTYYADSVKGRFTISRDNAKNTVYLQMNSLKPEDTAVYYCARDPSIRALEHDYWGQGTKVTVSS | high polyreactivity
4 | QVQLVESGRGLVQAGGSLRLSCAASGSIFKNYAMGWYRQAPGKERELVAAITRGTYYADSVKGRFTISRDNAKNTVYLQMNSLKPEDTAVYDCYREYWGRGYYRVRGEYDYWGQGTQVTVSS | low polyreactivity
5 | QVQLVESGGGLVQAGGSLRLSCAASGSIFYAYAMGWYRQAPGKERELVATISRGVNTNYADSVKGRFTISRDNAKNTVYLQMNSLKPEDTAVYYCNARLRYGHGYGYWGQGTQVTVSS | low polyreactivity
6 | QVQLVESGGGLVQAGGSGRLSCAASGSILPSYAMGWYRQAPGKERELVAAISRRGGSTYYADSVKGRFSISRDNAKNTVYLQMNSLKPEDTAVYYCAAGSYSGYDYWGQGTQVTVSS | low polyreactivity
7 | QDQLVESGGGLVQAGGSLRLSCAASGSTFPDYAAMGWYRPAPGTERELVAAISKRGGSTYYADSVKGRFTISRDNAKNTVYYQMNSLKPEDTAVYSCNVEYYILTAGRYARAYDYGGQGTQVTVSS | high polyreactivity
8 | QVQLVESGGGLVQAGGSLRLSCAASGRTFADFTMGWYRQAPGKERELVAAISFSGGSTYYADSVKGRFTISRDNAKNTVYLHMNSLKPEDTAVYYCAAGHKRRAPRYYDWGQGTQVTVSS | high polyreactivity
9 | QVQLVESGGGLVQAGGSLRLSCAASGSIFGGYAMGWYRQAPGKEREWVAAITSSGGRTYYADSVKGRFTISRDNAKNTVYLQMNSLKPEDTAVYYCAARYTRWRYNYKDYDYWGQGTQVTVSS | high polyreactivity
10 | QVQLVESGGGLVQAGGSLRLSCAASGSTLVRNAMGWSRPAPGKERDLVAAITSSGGRTYYADSVKGRFTISRDTAKNTVYLQMNSLKPEDTAVYYCNRVSRYYLYDYWGQGTQVTVSS | high polyreactivity
11 | QVQLVESGGGLVQAGGSLRLSCAASGFIFYSYPMGWYRKAPGKERALVAAITEDGDSTYYADSVKGRFTISRDNAKNTVYLQMNSLKPVDTAVYYCNTDLTFNGTSGDYDYWGQGTQVTVSS | low polyreactivity
12 | QVQLVVSGGGLVQAGGSLRLSCAASGRTFYRYAMGWYRQAPGKEWELVAAISASGGITYYADSVKGRFTISRDNAKNTVYLQMNSLKPEDTAVYYCKAVWRKTEYDYWGQGTQVTVSS | high polyreactivity
13 | QVQLVESGGGLVQAGGSLSLSCAASGSIFPGNAMGWYRQAPGKERELVAVIDFSGASTYYADSVKGRFTISRDNAKNTVYLQMNSLKPEDTADYWGQGTQVTVSS | low polyreactivity
14 | QVQLVESGGGLVQAGGSLRLSCAASGLTIQYNAMVWYRQAPGKERELVAAISRSGGSTYYADSVKGRFTISRDNAKNTEYLQMISLKPEDTAVYYCNKVSPYRGYYWGQGTQVTVSS | high polyreactivity
15 | QVQLVESWGGLVQSGGSLRLSCAASGFTFGHNAMGWYIQAPGKERELVAAIDTSGGSTYYADSVKGRFTISRDNEKNTVYLKMNSLKPEDTAVYYCAAFSASYGGYDYWGQGTQVTVSS | high polyreactivity
16 | QDQLVESGGGLVQAGGSLSLSCAASGRTFYWYVMGWYRQAPGKERELVAAITQTGSSSYYADSVKGRFTISRDNAKNTVYLQMNSLKPEDTAVYYCADRLSRNHYEVDYWGQGTQVTVSS | low polyreactivity
17 | QVQHVESGGGLVQAGGSLRLSCAASMGWYRQAPGKERELVAAINSGGSTNYADSVKGRFTISRDNAKNTVYLQMNSLKPEDTAVYYCAKTFSNLPEYDYWGQGTQVTVSS | low polyreactivity
18 | QVQLVDSGGGLVQAGGSLRLSCAASGSTFSRYAMGWYRQARGKERELVAAITDGGDSTYYADSVKGRFTISRDNAKNTVYLQMNSLKPEDTAGYYCNADRLQYGRTPHYDYWGQGTQVTVSS | low polyreactivity
19 | QVQLVESGGGLFHAGGSLRLSCAASGSIFVRNVMGGYRQAPGKERELVAAISRSGVSTYYADSVKGRFTISRDNAKNTVSLQMNSLKPEDTAVSYCNAGWRRRNSTGYPWGYDYWGQGTQVTVSS | high polyreactivity
20 | QVQLVESGGGLVQAGGSLRLSCAASGSTFALYAMGWYRQAPGKERELVAAISRSGSSTYYADSVKGRFTMSRDNAKNTVYLQMNSLKPEDTAVYYCATTISGLTSRLYYWGQGTQVTVSS | high polyreactivity
21 | QVHLEESVGGLLQAGGSLRLSCVASGSTFGAYAMGWYRQAPGKERELVAAINTGDSTNYADSVKGRFTISRDNAKNTVYFQMNSLKPVDTAVYYCAAVSKHSGDELDYWGQGTQVTVSS | high polyreactivity
22 | QVQLVESGGGLVQAGGSLRLSCAASGIIFNFNAMGWYSQAPGKERELVAGISYGGGRTYYADSVKGRFTISRDNAINTVYLQMNSLKPEDTAFYYCNKYGLGIYRGYYWGQGTQVTVSS | high polyreactivity

Row | Sequence | polyreactivity (PSR sort gate)
23 | QVQLVESGGGLVQAGGSLRLSCAASGSIFVPYAMGWYRQAPGKERELVAAISYRGGNTYYADSVKGRFTISRDKAKNTVSLQMNSLKPEDTAVYYCNAGVSIGRSRRDDYWGQGTQVTVSS | low polyreactivity
24 | QVQLVESGGGLVQAGGSLRLSCAASGRIFSWNTMGWYRQAPGKERELVAAISSSDGSTYYADSVKGRFTISRDNAKNTVYLQMNSVKPEDTAVYYCNKVVSRWNQRWRYSEGNYWGQGTQVTVSS | high polyreactivity
25 | QVQLVESGGGLVQAGGSLRLSCAASGITFRWNAMGWYRQAPGKERELVAAITTRGGGTYYADSVKGRFTISRDNAKNTVYLQMNSLKPEDTAVYYCAAKKSRYPYNYWGQGTQVTVSS | high polyreactivity
26 | QVQLVESGGGLVQAGGSLRLSCAASGLTFKYYTMGWYRQAPGKERELVADISRTGRTSYADSVKGRFTISRDNAKNTDYLQMNSLKPEDTAVYYCNADFYVSGYSLFASIYDYWGQGTQVTVSS | high polyreactivity
27 | QVQLVESGGGLVQAGGSLRLSCAASGIIFGSNAMGWYRQSPGKERELVAAISRNGGRTYYADSVKGRFTISRDNAKNTVYLQMNSLKPEDTAVYYCATRWPHYGGYYYWGQGTQVTVSS | high polyreactivity
28 | QVQLVESGGGLVQAGGSLRLSCAASGSTFDYNAMGWYRQAPGKERELVAAISWRGGGTYYADSVKGRFTISRDNAKNTVYLQMNSLKPEDTAVYYCNTVSRNGFYRSRHDYWGQGTQVTVSS | low polyreactivity
29 | QVQLVESVGGLVQAGASLPLSCAASGRIFPYYAMGWYRQAPGKESEFVAAITKRGGSTSYADSVKGRFTISRDNAKNTVYLQMNSLKPEDTAVYYCAARRGSGFFTYYGGAFWGQGTLVTVSS | low polyreactivity
30 | QVQLVESGGGLVQAGGSLRLSCAASGRILKYYAMGWYRQAPGKERELVAAITSDVNTYYADSVKGRFTISRDNAKNTVYLQMNSLKPEDTAVYYCNADADDYRDYQDYDYWGQGTQVTVSS | low polyreactivity
31 | QVQLVESGGGLVQAGGSLRLSCAASGRTFNKYAMGWYRQAPGKERELVAAINTSGGSTYYADSVKGRFTISRDNAKNTVYLQMNSLKPEDTAVYYCAAQSRSVYGRSYGYWGQGTQVTVSS | high polyreactivity
32 | QVQLVESGGGLVQAGGSHRLSCAASGLIFPYNAMGWYRQAPGKERELVAAIDSGVTTYYADSVKGRFTISRDNAKNTVYLQMNSLKPEDTAVYYCAADGLPGPEGDSWGQGTQVTVSS | low polyreactivity
33 | QVQLVESGGGLVQAGGSLRLSCAASGSIFQSYTMGGYRQAPGKERELVAAINSGGRTNYADSVKGRFTITRDNAKYTVYLQMNSLKPEDTAVYYCAKRLSTRASFGEEDSWGQGTQVTVSS | low polyreactivity
34 | QVQLEESGGGLVQAGGSLRLSCAASGFTFVYYAMGRYRQATGKERELVAAISWRDGDTYYADSVKGRFTISRDNAKNTVYVQMNSLKPEDTAVYYCAADYSYFKDDDWGQGTQVTVSS | low polyreactivity
35 | QVQLVESGGGLVQAGGSLRLSCAASGSTFYRYAMGWYRQAPGKERELVAVITSGGSTNYADSVKGRFTISRDNAKNTVYLQMNSLKPEDTAVYYCAKEDGYSQLKTTFDEAGYGSWGQGTQVTVSS | low polyreactivity
36 | QVQLVESGGGLVQAGGSLRLICAASGITFSVYTMGWYRQAPGKERELVAAIDSDGITNYADSVKGRFTISRDNAKNTVYLQLNSLKPEDTAVYYCAKQSGRADGVSGFDYWGQGTQVTVSS | low polyreactivity
37 | QVQLVESGGGLVQAGGSLRLSCAASGRIFYGYTMGWARQAPGKERQLVAAITWSGGSTYYADSVKGRFTISRDNAKYSVYLQMNSLKPKDTAVYYCAATLGNAADYDYGYWGQGTQVTVSS | high polyreactivity
38 | QVQLVESGGGLVQAGGSLRLSCAASGRTFSYNAMGWYRQAPGKERELVATISWGGGSTYYADSVKGRFTISRDNAKNTVYLQMNSQKPEDTAVFYCARVGWYAYLIDRDYWGQGSQVTVSS | high polyreactivity
39 | QVQLVESGGGLVQAGGGLRLSCAASGTFKRNAMGWYRQAPGKERELVATITRTGSTTYADSVKGRFTISRDNAMNTVYLQMYSQKPEDTAVYYCAAGYPPEDPEDYWGQGTQVTVSS | low polyreactivity
40 | QVQLVESGRGLFQAGGSLRLSCAPSGIIIVNYAMGWYRQAPGKERELVAAITTSGGSTYYADSVKGRFTISRDHAKNTVYLQMNSLKPEDTAVYDCAKKSSLFKHVVRYDYWGQGTQVTVSS | low polyreactivity
41 | QVQLVESGGGLVQAGGSLRLSCAAYGRNFTYYAMGWYRQAPGKERELVAANSRSGGRTYYADSVKGRFTISRDNAKNTVYLQMNSLKPEDTGVYYCAADRLSLRAYDYWGQGTQVNVSS | high polyreactivity
42 | QVQLVESGGGLVQAGGSLRLSCAASGRTFQNNAMGWYRQAPGKERELVAAISWRGTSTYYADSVKGRFTISRDNANNTVYLQMNSLKPEDTAVYYCAAYPKYGFEFKYGYWGQGTQVTVSS | high polyreactivity
43 | QVQLVESGGGLVQAGGSLRLSCAASGRIFKPNAMGGSRQAPGKEREFVARITRNTGSTYYADSVKGRFTISRDNAKNTVYLQMNSLKPEDTAVYYCAARFYRRNRFNYWGQGTLVTVSS | high polyreactivity
